Test results from the supplement of paper PMC10126150.
± gives the standard deviation of the averaged measurements.

Test system: ATP
Assay: switch fluorescence ratio, 500 uM ATP over buffer (Cy3 cluster intensity, sum of 5 cycles each) (fold (ratio)); higher = stronger signal-on switching upon ATP binding; sequences stand for … in TCGTCGGCAGCGTCAGATGTGTATAAGAGACAGTTTTTTTTTTTTTTTTTTTTTTTTT…TC
Conditions: aptamer strand: ATP DNA aptamer (quencher-CACCTGGGGGAGTATTGCGGAGGAAGG + anchor), 100 nM annealed; ATP concentration: 500 uM
Procedure, shortened: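 Values give the fluorescence ratio for each switch-domain sequence, averaged from per-cluster ratios of summed target-cycle to summed buffer-cycle Cy3 intensity. The Cy3-labelled switching-strand clusters sat on a modified Illumina MiSeq flow-cell, were annealed to 100 nM quencher-labelled ATP aptamer, and were imaged in selection buffer, then after 15 min with 500 uM ATP at 22 °C. Five cycles ran with NaOH stripping and re-annealing between them, and clusters outside 100-1000 RFU were excluded.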
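Note: ATP exposure 15 min at 22 °C before imaging.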

Row | Sequence | switch fluorescence ratio
1 | CAATGTGCAG | 0.98804 ± 5.9e-06
2 | CAATTATTAG | 0.988 ± 0.017
3 | CAATTCGAGC | 0.988 ± 0.015
4 | CAATTCGCGA | 1.2 ± 0.034
5 | CAATTCGTAA | 1.11 ± 0.018
6 | CAATTCGTCT | 0.994 ± 0.075
7 | CAATTGCCCA | 1.014 ± 0.0079
8 | CAATTGTACT | 0.994 ± 0.013
9 | CAATTTATAT | 0.994 ± 0.019
10 | CAATTTGTGT | 0.983 ± 0.012
11 | CAATTTTCTG | 0.985 ± 0.057
12 | CAATTTTGTG | 0.9807 ± 0.007
13 | CACAAGGTAT | 1.03 ± 0.033
14 | CACAATTGGG | 1.01 ± 0.035
15 | CACAGTTACC | 1.242 ± 0.0095
16 | CACATACATT | 1.24 ± 0.067
17 | CACATAGTTT | 1.03 ± 0.023
18 | CACATTGACC | 1.1119 ± 7.1e-05
19 | CACATTGTAG | 1.007 ± 0.0086
20 | CACATTTTCA | 1.01 ± 0.027
21 | CACCAAGGTT | 1.15 ± 0.088
22 | CACCAGGAAT | 1.08 ± 0.021
23 | CACCAGTGCT | 1.621 ± 0.0094
24 | CACCCATTGC | 1.584 ± 0.0038
25 | CACCGGGCCT | 1.02 ± 0.016

Row | Sequence | switch fluorescence ratio
26 | CACCGGGGTT | 1.01 ± 0.018
27 | CACCTAGTTT | 1.01 ± 0.052
28 | CACGAATGCT | 1.04 ± 0.019
29 | CACGAGAAGT | 1.044 ± 0.0047
30 | CACGCGGTGG | 1.02 ± 0.13
31 | CACGCTAGTA | 1.04 ± 0.021
32 | CACGCTTCCG | 1.07 ± 0.047
33 | CACGGATGTT | 1.02 ± 0.093
34 | CACGGTCTAA | 1.03 ± 0.043
35 | CACGTAAACG | 1.0351 ± 9.7e-05
36 | CACGTTACTG | 1.66 ± 0.12
37 | CACTAGAGGT | 1.03 ± 0.06
38 | CACTAGTTTT | 1.01 ± 0.012
39 | CACTATGGGA | 1.02 ± 0.027
40 | CACTATTAGT | 0.979 ± 0.01
41 | CACTCAGGGA | 1.04 ± 0.046
42 | CACTCATTGG | 1.039 ± 0.008
43 | CACTCGAGTC | 0.978 ± 0.011
44 | CACTCGGAAT | 1.19 ± 0.03
45 | CACTCTCTGA | 0.969 ± 0.045
46 | CACTGCGCGC | 1.11 ± 0.017
47 | CACTGGAGAA | 1.044 ± 0.0051
48 | CACTGGGCGA | 3.28 ± 3.2
49 | CACTGGGGGC | 1.02 ± 0.036
50 | CACTGGTGGC | 1.06 ± 0.022

Row | Sequence | switch fluorescence ratio
51 | CACTGTGTGG | 0.987 ± 0.042
52 | CACTTAGGCT | 1.01 ± 0.011
53 | CACTTATGTG | 0.99 ± 0.038
54 | CACTTGGAGC | 0.944 ± 0.059
55 | CACTTGTGAC | 1 ± 0.016
56 | CACTTTCACA | 1.17 ± 0.055
57 | CAGAAAAAAC | 1.05 ± 0.035
58 | CAGAAAAGCA | 1.03 ± 0.017
59 | CAGAAGCGGA | 1.19 ± 0.051
60 | CAGAATTAA | 1 ± 0.037
61 | CAGACGGTTT | 1.095 ± 0.0078
62 | CAGACGTCGA | 1.05 ± 0.066
63 | CAGAGATTAG | 0.996 ± 0.043
64 | CAGAGATTTA | 0.995 ± 0.024
65 | CAGAGGAAGT | 1.02 ± 0.04
66 | CAGAGGAGTG | 0.9738 ± 0.0038
67 | CAGAGGGAGG | 1.02 ± 0.033
68 | CAGAGGGGGA | 1.04 ± 0.036
69 | CAGAGGGGGC | 1.012 ± 0.0071
70 | CAGAGTGGGA | 1.03 ± 0.016
71 | CAGATAAGTG | 1.01 ± 0.068
72 | CAGATACAAG | 1.036 ± 0.0095
73 | CAGATAGGGG | 1.12 ± 0.19
74 | CAGATGTACC | 1.08 ± 0.028
75 | CAGATTGAAT | 0.982 ± 0.024

Row | Sequence | switch fluorescence ratio
76 | CAGATTTGTT | 0.992 ± 0.018
77 | CAGATTTTGA | 0.9804 ± 0.0045
78 | CAGCATAAAG | 1.02 ± 0.057
79 | CAGCATCATC | 1.242 ± 0.011
80 | CAGCCCTAGG | 1.09 ± 0.053
81 | CAGCCTATGG | 0.991 ± 0.05
82 | CAGCCTGCGG | 1.01 ± 0.029
83 | CAGCGCCATA | 1.078 ± 0.0042
84 | CAGCGCCGGG | 0.994 ± 0.017
85 | CAGCGGGACC | 1.03 ± 0.025
86 | CAGCGGGCGT | 0.963 ± 0.01
87 | CAGCTAAAGG | 1.02 ± 0.03
88 | CAGCTACGTG | 1.0258 ± 0.00037
89 | CAGCTAGGTG | 1.54 ± 0.029
90 | CAGCTATCTT | 1.039 ± 0.01
91 | CAGCTCTAAG | 1 ± 0.013
92 | CAGCTCTGTT | 0.984 ± 0.041
93 | CAGCTGGCGC | 0.9949 ± 0.0083
94 | CAGCTTGGGG | 1.019 ± 0.0089
95 | CAGCTTGTTT | 1.01 ± 0.02
96 | CAGCTTTAAT | 1.03 ± 0.02
97 | CAGCTTTTGG | 0.993 ± 0.039
98 | CAGGAAATTG | 1.02 ± 0.052
99 | CAGGAAGCTG | 1.04 ± 0.11
100 | CAGGAAGGGA | 0.9958 ± 0.0064
